Experimental data: patent US11872261B2, “Lipoprotein targeting protease inhibitors and uses” (The United States of America, as represented by the …, priority 2016, dated 2024)
No end group written: not given here. PEG2000 = poly(ethylene) glycol, 2000; VitE = vitamin E (alpha tocopherol)

Experiments:
[1] = system: J774 mouse macrophages; experiment: Elastase induced TNF-α production by J774 macrophages; format: cell-based
Experimental: (§1) FIG. 9A-9E. Alpha-1-antitrypsin enriched HDL prevents elastase induced TNF-α production by macrophages. (FIG. 9A) J774 mouse macrophages treated with increasing amounts of porcine pancreatic elastase (PPE) or heat inactivated elastase for 4 hours, TNF-α in the culture media was measured by ELISA. (FIG. 9B) J774 cells pretreated with PBS, isolated human HDL (nHDL), the same HDL enriched with alpha-1-antitrypsin (A1AT nHDL), or lipid free A1AT for 1 hour prior to PPE addition. (FIG. 9C) The ability of each of the cell treatments to inhibit elastase activity was measured in a cell-free assay. (FIG. 9D) Treatments were pre-incubated with PPE prior to addition to cells and TNF-α was measured in the culture media after 4 hours. (FIG. 9E) J774 cells were pre-incubated with each treatment for 1 hour; cells were then washed twice with PBS and placed in fresh media containing PPE and TNF-α was measured in the culture media after 4 hours. All experiments were repeated at least 3 times and were done in triplicates. Treatments were compared using one-way ANOVA and Tukey's multiple comparisons test, p<0.05 was considered significant. The letters above each treatment indicate statistical significance; within each graph, bars bearing different letters were statistically different from each other.
J774 mouse macrophages were used to examine the potential functional role of alpha-1-antitrypsin enriched HDL in inflammation. For these experiments, cells were plated in 12-well culture plates at a density of 1×10^5 cells/well two days prior to the experiment. Cells were washed twice with PBS and placed in serum-free media for 1 hour prior to addition of treatment. Treatments (PBS, nHDL, A1AT-HDL or A1AT) were added to serum-free culture media: HDL protein was matched for nHDL and A1AT-nHDL at a final concentration of 200 μg/mL. A1AT concentration was matched between free A1AT and A1AT-nHDL at a final concentration of 2 μM. Cells were then incubated with elastase (porcine pancreas, Sigma Aldrich, 500 nM) for 4 hours and media was collected and centrifuged at 3,000×g for 5 min to pellet any loose cells or debris and supernatant was transferred to fresh tubes and stored at −80° C. until further analysis. Elisa assays for mouse TNF-α (BioLegend) were performed on cell culture media.
Next, J774 cells were pre-incubated with PBS, native HDL (nHDL), A1AT enriched nHDL, or lipid-free A1AT for 1 hour prior to the addition of elastase to the culture media to allow for […] of A1AT.

[2] = biological target: T1, porcine pancreatic elastase (PPE) (Sus scrofa, UniProt P00772); experiment: Elastase inhibition of the cell treatments in a cell-free assay; format: biochemical; conditions: same treatments as for J774 cells
T1 construct: incubated with elastase (porcine pancreas, Sigma Aldrich, 500 nM) for 4 hours; purchased Sigma Aldrich; host or cells: porcine pancreas
Experimental: as §1, with “other. […]” for “other.”

[3] = biological target: T2, reconstituted HDL (rHDL) (Homo sapiens, UniProt P02647); experiment: Binding of A1AT to reconstituted HDL, size exclusion chromatography; conditions: gel filtration profile, HDL containing apoA-I and phospholipids
T2 construct: Reconstituted HDL was prepared by cholate dialysis method, using human purified apolipoprotein A-I; from tissue
Experimental: FIG. 7A-7B. Alpha-1-antitrypsin has reduced anti-elastase activity when bound to reconstituted HDL. Reconstituted HDL (rHDL) were prepared from apoA-I and phospholipids by cholate dialysis and then co-incubated with alpha-1-antitrypsin (A1AT) to generate A1AT enriched rHDL. (FIG. 7A) Size exclusion chromatography on tandem Superdex 200 columns was used to isolate HDL bound A1AT from lipid free protein. (FIG. 7B) The ability of lipid free and rHDL bound A1AT to inhibit neutrophil elastase (NE) activity was measured by fluorometric assay.
Reconstituted HDL was prepared by cholate dialysis method, using human purified apolipoprotein A-I and 1-palmitoyl-2-oleoyl-sn-glycero-3-phosphocholine (Avanti) as previously described (Matz & Jonas, J Biol Chem 257: 4535-4540, 1982). Native human HDL was isolated from plasma by sequential density gradient ultracentrifugation (Chapman et al., J Lipid Res 22: 339-358, 1981). Reconstituted or native HDL was co-incubated with alpha-1-antitrypsin protein (Human, Sigma Aldrich) overnight at 37° C. Unbound A1AT was removed by filtration, using Amicon Ultra 100 kDa centrifugal filter units (Millipore). Elastase activity assays were performed with the EnzChek® elastase assay kit (Life Technologies). […]

[4] = biological target: T3, elastase (Sus scrofa, UniProt P00772); experiment: EnzChek elastase inhibitor assay (Example 3); format: biochemical; conditions: EnzChek Elastase Assay Kit
T3 construct: purchased Molecular Probes E-12056
Excerpt: Elastase Inhibitor Assay.

[5] = system: HDL; experiment: E-AAPV coincubated with purified human HDL, HDL repurified and tested for elastase inhibitor activity; format: binding; conditions: coincubated 30 minutes at 37° C., HDL repurified by size-exclusion chromatography
Experimental: Isolated Human HDL was co-incubated with the E-AAPV (SEQ ID NO: 5) peptide for 30 minutes at 37° C. and then HDL was reisolated by FPLC to remove unbound E-AAPV (SEQ ID NO: 5). The HDL was then tested for elastase inhibition activity and compared to control HDL which was coincubated with PBS (no peptide) and repurified. Sampes were matched based on phospholipid content.
E-AAPV peptide binds HDL and confers elastase inhibitor activity. The reaction product (E-AAPV; SEQ ID NO: 5) was coincubated with purified human HDL for 30 minutes at 37° C. followed by repurification of HDL by size-exclusion chromatography to remove unbound E-AAPV (SEQ ID NO: 5) peptide. The repurified HDL was then tested for elastase inhibitor activity using the assay described above.
E-AAPV (SEQ ID NO: 5)-loaded HDL was compared to the same HDL that was coincubated with buffer only (No peptide). The HDL and HDL+E-AAPV (SEQ ID NO: 5) were normalized based on phospholipid content, determined by colorimetric assay, prior to measurement of elastase activity.

T3 sequence (P00772 27-266): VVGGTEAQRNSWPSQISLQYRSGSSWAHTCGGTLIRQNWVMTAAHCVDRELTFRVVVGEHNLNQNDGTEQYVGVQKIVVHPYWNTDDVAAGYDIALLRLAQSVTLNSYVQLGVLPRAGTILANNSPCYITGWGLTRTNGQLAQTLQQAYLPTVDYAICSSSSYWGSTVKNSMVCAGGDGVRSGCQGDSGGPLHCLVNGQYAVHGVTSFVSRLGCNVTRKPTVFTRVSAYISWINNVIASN
T2 sequence (P02647 25-267): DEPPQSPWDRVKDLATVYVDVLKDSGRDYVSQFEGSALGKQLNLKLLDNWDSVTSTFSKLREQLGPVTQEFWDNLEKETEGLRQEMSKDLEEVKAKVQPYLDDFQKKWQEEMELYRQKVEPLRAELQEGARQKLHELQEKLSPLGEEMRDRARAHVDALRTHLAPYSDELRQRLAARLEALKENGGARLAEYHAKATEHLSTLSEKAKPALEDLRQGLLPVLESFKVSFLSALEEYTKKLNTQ
T1 sequence (P00772 27-266): as the sequence (P00772 27-266) above

Row | Substance | proteolytic degradation of A1AT in cell culture media, western blot ([1]; J774 cell culture media) | inhibition of elastase induced TNF-α production, treatment pre-incubated with elastase ([1]; pre-incubated with elastase prior to addition to the cells) | protection against elastase induced TNF-α production ([1]; pretreated 1 hour prior to elastase, A1AT 2 μM) | protection against elastase induced TNF-α production after removal of treatment ([1]; pretreated 1 hour, cells washed, fresh media containing elastase) | inhibition of elastase activity in a cell-free system [2] | association of A1AT with discoidal reconstituted HDL [3] | elastase inhibitor activity [4] | elastase inhibitor activity ([4]; listed as VitE-PEG-AAPV) | binding to HDL [5]
1 | A1AT: alpha-1-antitrypsin protein (Human, Sigma Aldrich), serine protease inhibitor | no evidence of proteolytic degradation | readily able to inhibit elastase induced TNF-α production | no significant protection | no effect | significant anti-elastase activity | a significant fraction of A1AT associates with HDL |  |  | 
2 | VitE-PEG-Ala-Ala-Pro-Val ({VitE-PEG2000}-AAPV) [E-AAPV, vitamin E linked to the A1AT linear peptide AAPV via a PEG2000 linker] |  |  |  |  |  |  | does not affect elastase inhibition activity | retains elastase inhibitor activity | binds HDL
